In patent US20230242902A1, “A HIGHLY ERROR-PRONE […] R[…] FOR TARGETED CONTINUOUS EVOLUTION IN VIVO” (The Regents of the University of California, priority 2017, published 2023):
Numbering of substitutions follows the chain as printed. Numbers in names are those of the source.

System: p1
Experiment: p1 copy number by p1-encoded mKate2 fluorescence
Assay type: cell-based, S. cerevisiae
Settings: OR-Y24, measured in triplicate
Protocol: A calibration curve was established to correlate p1 copy number, determined via quantitative PCR (qPCR), with fluorescence of p1-encoded mKate2 (Table 1). Five TP-DNAP1 variants representing a wide range of copy numbers were transformed into ORY24 and passaged until w.t. p1 was displaced. The five OR-Y24 strains were grown to saturation, diluted 1:10,000 to mimic p1 fluctuation tests, and grown in triplicate 100 μL cultures and duplicate 40 mL cultures. 100 μL saturated cultures were subject to fluorescence measurement of mKate2 (ex/em=561 nm/620 nm, bandwidth=15 nm) on a flow cytometer (Invitrogen Attune NxT). Whole-cell DNA extracts were prepared from 40 mL cultures and used as templates for qPCR measurement of p1-encoded leu2 (Q180*), as described previously (Ravikumar et al., 2014). p1-encoded LEU2 was PCR amplified with qPCR-Leu2F and qPCR Leu2R; and genomic LEU3 was PCR amplified with qPCR-Leu3F and qPCR-Leu3R using SyBR Green (Fisher Scientific) master mix.
To assay p1 copy number for large-scale p1 fluctuation tests, additional replicates of OR-Y24 strains were grown from the 1:10,000 dilution in triplicate and saturated cultures were subject to fluorescence measurement via flow cytometry. Fluorescence measurements were converted to copy number with the linear calibration curve.
To assay relative p1 copy number for small-scale p1 fluctuation tests, an additional 200 μL culture of OR-Y24 strains were grown from the 1:10,000 dilution. 200 μL saturated cultures were subject to an OD600 measurement and fluorescence measurement of mKate2 (ex/em=588 nm/633 nm), using a microplate reader (TECAN Infinite M200 PRO). A linear relationship was assumed between p1 copy number and OD600-normalized mKate2 fluorescence. Copy numbers were calculated from normalization to a w.t. TP-DNAP1 control.
For a few large-scale p1 fluctuation tests, p1 copy number was assayed by the method of small scale p1 fluctuation tests (i.e. microplate reader measurement). For these experiments, mutant TP-DNAP1 p1 copy numbers were calculated by normalization to a w.t. TP-DNAP1 control. The copy number of this control was assumed to be the average w.t. TP-DNAP1 copy number from all large-scale p1 fluctuation tests that used flow cytometry measurements.
TP-DNAP1 plasmids were isolated from these strains and subject to Sanger sequencing. 210 unique variants were identified and the corresponding plasmids were re-transformed into OR-Y24. Transformed strains were passaged in SC-UH until w.t. p1 was displaced, and subject to p1 copy number measurement in triplicate. Four high copy variants were directly subject to qPCR measurements for validation. To test the suppressor activity of the G410H mutation, which yields increased p1 copy number, this amino acid change was added to several low-activity TP-DNAP1 variants. p1 copy number was similarly assayed for these strains.

B1: G410F: TP-DNAP1 variant (protein)
chain: MDYKDKALNDLRNVYADFDSLPLDFRQILIKDRATLLQKEDVEKKILERQEDAKKYAEYLKQSEIPERISLPNIKRHKGVSISFEETSEDMVLEPRPFIFDGLNIRCFRRETIFSLKNKILNMVKESSSFKNVSRQSVSFMYFKIFNKGKVIASTKSVNIYEDKIDERLEDLCNNFDDVLKKIIDVTYGYESLFVSETYSYVIFYAKSIYFPQPRCVNNWGNNIPNILTFDSFKLFTANKNNVSCIKQCSRFLWQKDFNTLEEMIEYKNGNICIVTPQLHINDVRDIKSFNDIRLYSESPIKTFSVIDNTITYLFYFKEHLGVIFNITKSRHDRRVTKFSPLSKFSDVKNITVCFDIESYFDPEKESNQVNIPFICCASIIYNKVIGNIVDFEGRDCVAQMIEYVVDICFELNISSVELIAHNGGGYDFHYILSSMYNPAAIKNILIRNNSFISFNFAHDGVKFSVKDSYSFLLCSLANASKAFLNEETFKKTDFPHHDLKTADDLYKVYKEWSSVNTEINHVVEKEKLLITSEHIVNFTKNDKSKTLIEWSKDYCRNDVLVLSKVWLEFKNAVEDIFNCELVDQTMTLAGLSYKLFQANMPFDVELRHPNKEDYFNMREALIGGRCISVNGIYKDVLCLDVKSLYPASMAFYDQPYGSFKRVSSRPKDELGIYYVRVTPNRNNKSNFFPIRSHNKITYNNFEESTYIAWYTNVDIDIGLSEGHNIEYIPFDSYGNIGYSWSKKGKIFEKYIKDVLYKLKIKYEKQNNKVKRNVIKIIMNSLWGKFAQKWVNFEYFIKSEDDIDFESEEAYKIWDTDFMLIKKIKESTYSSKPIQNGVFTLSWARYHMKSIWDAGAKEGAECIYSDTDSIFVHKEHFKKNAKFMLNGLKVPIIGSEVGQLELECEFDKLLCAGKKQYMGFYTYFQDGKPCIKEKKRFKGIPSNYIIPELYAHLLSGADKEAKIQFLKFRREWGSVKGYIENKTVKAT
- Mean fold-increase over w.t. (p1 copy number): 2.66 fold

B2: G410S: TP-DNAP1 variant (protein)
chain: B1 chain with F410S
- Mean fold-increase over w.t. (p1 copy number): 2.27 fold

B3: G410T: TP-DNAP1 variant (protein)
chain: B1 chain with F410T
- Mean fold-increase over w.t. (p1 copy number): 2.57 fold

B4: G410W: TP-DNAP1 variant (protein)
chain: B1 chain with F410W
- Mean fold-increase over w.t. (p1 copy number): 2.5 fold

B5: G410Y: TP-DNAP1 variant (protein)
chain: B1 chain with F410Y
- Mean fold-increase over w.t. (p1 copy number): 2.73 fold

B6: E411A: TP-DNAP1 variant (protein)
chain: B1 chain with F410G, E411A
- Mean fold-increase over w.t. (p1 copy number): 2.08 fold

B7: E411R: TP-DNAP1 variant (protein)
chain: B1 chain with F410G, E411R
- Mean fold-increase over w.t. (p1 copy number): 2.07 fold

B8: E411N: TP-DNAP1 variant (protein)
chain: B1 chain with F410G, E411N
- Mean fold-increase over w.t. (p1 copy number): 1.9 fold

B9: E411D: TP-DNAP1 variant (protein)
chain: B1 chain with F410G, E411D
- Mean fold-increase over w.t. (p1 copy number): 2.32 fold

B10: E411G: TP-DNAP1 variant (protein)
chain: B1 chain with F410G, E411G
- Mean fold-increase over w.t. (p1 copy number): 1.54 fold

B11: N291K: TP-DNAP1 variant (protein)
chain: B1 chain with N291K, F410G
- Mean fold-increase over w.t. (p1 copy number): 1.66 fold

B12: E411L: TP-DNAP1 variant (protein)
chain: B1 chain with F410G, E411L
- Mean fold-increase over w.t. (p1 copy number): 2.22 fold

B13: E411K: TP-DNAP1 variant (protein)
chain: B1 chain with F410G, E411K
- Mean fold-increase over w.t. (p1 copy number): 2.39 fold

B14: E411S: TP-DNAP1 variant (protein)
chain: B1 chain with F410G, E411S
- Mean fold-increase over w.t. (p1 copy number): 1.52 fold

B15: L412V: TP-DNAP1 variant (protein)
chain: B1 chain with F410G, L412V
- Mean fold-increase over w.t. (p1 copy number): 2.21 fold

B16: N413E: TP-DNAP1 variant (protein)
chain: B1 chain with F410G, N413E
- Mean fold-increase over w.t. (p1 copy number): 2.62 fold

B17: N413H: TP-DNAP1 variant (protein)
chain: B1 chain with F410G, N413H
- Mean fold-increase over w.t. (p1 copy number): 2.2 fold

B18: N413T: TP-DNAP1 variant (protein)
chain: B1 chain with F410G, N413T
- Mean fold-increase over w.t. (p1 copy number): 1.76 fold

B19: I414F: TP-DNAP1 variant (protein)
chain: B1 chain with F410G, I414F
- Mean fold-increase over w.t. (p1 copy number): 1.29 fold

B20: S415V: TP-DNAP1 variant (protein)
chain: B1 chain with F410G, S415V
- Mean fold-increase over w.t. (p1 copy number): 1.44 fold

B21: G426T: TP-DNAP1 variant (protein)
chain: B1 chain with F410G, G426T
- Mean fold-increase over w.t. (p1 copy number): 1.22 fold

B22: N291M: TP-DNAP1 variant (protein)
chain: B1 chain with N291M, F410G
- Mean fold-increase over w.t. (p1 copy number): 2.28 fold

B23: D460G: TP-DNAP1 variant (protein)
chain: B1 chain with F410G, D460G
- Mean fold-increase over w.t. (p1 copy number): 1.63 fold

B24: G461K: TP-DNAP1 variant (protein)
chain: B1 chain with F410G, G461K
- Mean fold-increase over w.t. (p1 copy number): 2.15 fold

B25: N611Q: TP-DNAP1 variant (protein)
chain: B1 chain with F410G, N611Q
- Mean fold-increase over w.t. (p1 copy number): 1.92 fold

B26: N611P, V897V: TP-DNAP1 variant (protein)
chain: B1 chain with F410G, N611P
- Mean fold-increase over w.t. (p1 copy number): 2.04 fold

B27: K612A: TP-DNAP1 variant (protein)
chain: B1 chain with F410G, K612A
- Mean fold-increase over w.t. (p1 copy number): 1.94 fold

B28: K612Q: TP-DNAP1 variant (protein)
chain: B1 chain with F410G, K612Q
- Mean fold-increase over w.t. (p1 copy number): 2.04 fold

B29: K612S: TP-DNAP1 variant (protein)
chain: B1 chain with F410G, K612S
- Mean fold-increase over w.t. (p1 copy number): 1.75 fold

B30: K612V: TP-DNAP1 variant (protein)
chain: B1 chain with F410G, K612V
- Mean fold-increase over w.t. (p1 copy number): 1.85 fold

B31: E613D: TP-DNAP1 variant (protein)
chain: B1 chain with F410G, E613D
- Mean fold-increase over w.t. (p1 copy number): 1.82 fold
